Reference: patent publication US20250361274A1, “PEPTIDE AND PEPTIDE-CONTAINING AGENT” (PEPTIDREAM INC., priority 2022, published 2025)
Numbered stars: 1 amine (or outer) side, 2 acyl side, 3 side chain; on linkers, the order of the positions; unused ones are H or OH. Square brackets hold non-standard residues; d marks the D form. Ends that are not written are not given here. KCOpipzaa = N6-(4-(carboxymethyl)piperazine-1-carbonyl)-L-lysine, O=C(NCCCC[C@H](N[*:1])C(=O)[*:2])N1CCN(CC(=O)[*:3])CC1; Bph3C = (S)-2-amino-3-(3'-chloro-[1,1'-biphenyl]-4-yl)propanoic acid, O=C([C@H](Cc1ccc(-c2cccc(Cl)c2)cc1)N[*:1])[*:2]; F44thp = (S)-2-amino-3-[4-(tetrahydro-2H-pyran-4-yl)phenyl]propanoic acid, O=C([C@H](Cc1ccc(C2CCOCC2)cc1)N[*:1])[*:2]; Bph3F = (S)-2-amino-3-(3'-fluoro-[1,1'-biphenyl]-4-yl)propanoic acid, O=C([C@H](Cc1ccc(-c2cccc(F)c2)cc1)N[*:1])[*:2]; Cha4tH = (S)-2-amino-3-((1r,4S)-4-hydroxycyclohexyl)propanoic acid, O=C([C@H](C[C@H]1CC[C@H](O[*:3])CC1)N[*:1])[*:2]; F42Py = (S)-2-amino-3-[4-(pyridin-2-yl)phenyl]propanoic acid, O=C([C@H](Cc1ccc(-c2ccccn2)cc1)N[*:1])[*:2]; Phe(4-(4-pyridyl)) = N[C@@H](Cc1ccc(-c2ccncc2)cc1)C(=O)O; Phe(4-(3-Py)) = N[C@@H](Cc1ccc(-c2cccnc2)cc1)C(=O)O; 3Pal(6-Ph) = N[C@@H](Cc1ccc(-c2ccccc2)nc1)C(=O)O; Phe(4-COOH) = N[C@@H](Cc1ccc(C(=O)O)cc1)C(=O)O; Bip = N[C@@H](Cc1ccc(-c2ccccc2)cc1)C(=O)O; Ala(cPent) = N[C@@H](CC1CCCC1)C(=O)O; Hyp = O=C(O)[C@@H]1C[C@@H](O)CN1; NMeF = CN[C@@H](Cc1ccccc1)C(=O)O; 3Pal = N[C@@H](Cc1cccnc1)C(=O)O; 4Pal = N[C@@H](Cc1ccncc1)C(=O)O; Cha = N[C@@H](CC1CCCCC1)C(=O)O; Cba = N[C@@H](CC1CCC1)C(=O)O

Columns and labels:
BMP4 = biological target: T1, BMP4 (Homo sapiens, UniProt P12644); assay: BMP4 signal transduction inhibitory activity: SMAD1 phosphorylation by BMP4 stimulus, AlphaLISA SureFire, A549 cells; format: cell-based; conditions: BMP4 0.2 nM; for aLIZA BMP4 (0.2 nM) % inh: peptide 0.02, 0.2, 2 nM, Table 6; for aLISA BMP4 (0.2 nM) % inh: SMAD1 phosphorylation, peptide conc. in assay 0.2, 2, 20 nM
T1 sequence (P12644 293-408): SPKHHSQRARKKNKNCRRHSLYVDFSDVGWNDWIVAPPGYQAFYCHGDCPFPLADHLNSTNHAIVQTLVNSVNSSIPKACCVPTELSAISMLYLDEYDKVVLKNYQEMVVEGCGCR

BMP7 = biological target: T2, BMP7 (Homo sapiens, UniProt P18075); assay: BMP7 signal transduction inhibitory activity: SMAD1 phosphorylation by BMP7 stimulus, A549 cells; format: cell-based; conditions: BMP7 10 nM; for aLIZA BMP7 (10 nM) % inh: peptide 10, 100, 1000 nM, Table 6; for aLISA BMP7 (10 nM) % inh: SMAD1 phosphorylation, peptide conc. in assay 1, 10, 100 nM
T2 sequence (P18075 293-431): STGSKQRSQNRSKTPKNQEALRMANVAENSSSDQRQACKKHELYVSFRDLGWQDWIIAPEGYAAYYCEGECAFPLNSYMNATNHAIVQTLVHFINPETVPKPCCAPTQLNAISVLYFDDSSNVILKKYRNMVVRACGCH
Method in brief: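 A549 cells were stimulated with 10 nM BMP7, and peptide inhibition of signalling was measured as SMAD1 phosphorylation. Peptides were tested at three concentrations, in sets ranging from 1–100 nM to 100–1,000 nM, or as eight-point 1/3 dilution series starting at 100 nM or 1,000 nM.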

Substance | aLIZA BMP4 (0.2 nM) % inh (BMP4) | aLIZA BMP7 (10 nM) % inh (BMP7) | aLISA BMP4 (0.2 nM) % inh (BMP4) | aLISA BMP7 (10 nM) % inh (BMP7)
316 (ERV[Phe(4-COOH)][Cba][KCOpipzaa]R[3Pal(6-Ph)][KCOpipzaa]Y[Hyp][Bph3F][4Pal][Phe(4-COOH)][Phe(4-COOH)]SCG-NH2; not fully specified) [compound 316] | C (showed less than 30% of inhibitory activity in 0.2 nM-addition zone and showed 30% or more of inhibitory activity in 2 nM-addition zone) | ND (the inhibitory activity was less than 30% at the maximum concentration evaluated) | – | –
317 (ERV[Phe(4-COOH)][Cba][KCOpipzaa]R[3Pal(6-Ph)][KCOpipzaa]Y[Hyp][Bph3C][4Pal][Phe(4-COOH)][Phe(4-COOH)]SCG-NH2; not fully specified) [compound 317] | B (showed less than 30% of inhibitory activity in 0.02 nM-addition zone and showed 30% or more of inhibitory activity in 0.2 nM-addition zone) | ND (the inhibitory activity was less than 30% at the maximum concentration evaluated) | – | –
318 (ERV[Phe(4-COOH)][Cha4tH][KCOpipzaa]R[3Pal(6-Ph)][KCOpipzaa]Y[Hyp][Bph3F]Y[Phe(4-COOH)][Phe(4-COOH)]SCG-NH2; not fully specified) [compound 318] | B (showed less than 30% of inhibitory activity in 0.02 nM-addition zone and showed 30% or more of inhibitory activity in 0.2 nM-addition zone) | D (showed less than 30% of inhibitory activity in a zone to which the peptide was added in an amount of 10 nM and showed 30% or more of inhibitory activity in 100 nM-addition zone) | – | –
319 (ERV[Phe(4-COOH)][Cha4tH][KCOpipzaa]R[3Pal(6-Ph)][KCOpipzaa]Y[Hyp][Bph3C]Y[Phe(4-COOH)][Phe(4-COOH)]SCG-NH2; not fully specified) [compound 319] | B (showed less than 30% of inhibitory activity in 0.02 nM-addition zone and showed 30% or more of inhibitory activity in 0.2 nM-addition zone) | D (showed less than 30% of inhibitory activity in a zone to which the peptide was added in an amount of 10 nM and showed 30% or more of inhibitory activity in 100 nM-addition zone) | – | –
320 (ERV[Phe(4-COOH)][Cha4tH][KCOpipzaa]R[3Pal(6-Ph)][KCOpipzaa]Y[Hyp][Bph3F][4Pal][Phe(4-COOH)][Phe(4-COOH)]SCG-NH2; not fully specified) [compound 320] | B (showed less than 30% of inhibitory activity in 0.02 nM-addition zone and showed 30% or more of inhibitory activity in 0.2 nM-addition zone) | E (showed less than 30% of inhibitory activity in 100 nM-addition zone and showed 30% or more of inhibitory activity in 1,000 nM-addition zone) | – | –
321 (ERV[Phe(4-COOH)][Cha4tH][KCOpipzaa]R[3Pal(6-Ph)][KCOpipzaa]Y[Hyp][Bph3C][4Pal][Phe(4-COOH)][Phe(4-COOH)]SCG-NH2) [compound 321] | B (showed less than 30% of inhibitory activity in 0.02 nM-addition zone and showed 30% or more of inhibitory activity in 0.2 nM-addition zone) | E (showed less than 30% of inhibitory activity in 100 nM-addition zone and showed 30% or more of inhibitory activity in 1,000 nM-addition zone) | – | –
322 ([4Pal]G[NMeF]G[Bip]GDD[Cha]A[NMeF]LHCG-NH2) [compound 322] | – | – | ND (the inhibitory activity was less than 30% at the maximum concentration evaluated) | D (showed less than 30% of inhibitory activity in 10 nM-addition zone and showed 30% or more of inhibitory activity in 100 nM-addition zone)
323 ([3Pal]G[NMeF]G[Bip]GDD[Cha]A[NMeF]LHCG-NH2; not fully specified) [compound 323] | – | – | ND (the inhibitory activity was less than 30% at the maximum concentration evaluated) | D (showed less than 30% of inhibitory activity in 10 nM-addition zone and showed 30% or more of inhibitory activity in 100 nM-addition zone)
324 (FG[NMeF]GFGDD[Cha]A[NMeF]LHCG-NH2) [compound 324] | – | – | ND (the inhibitory activity was less than 30% at the maximum concentration evaluated) | D (showed less than 30% of inhibitory activity in 10 nM-addition zone and showed 30% or more of inhibitory activity in 100 nM-addition zone)
325 (FG[NMeF]G[Phe(4-(4-pyridyl))]GDD[Cha]A[NMeF]LHCG-NH2; not fully specified) [compound 325] | – | – | ND (the inhibitory activity was less than 30% at the maximum concentration evaluated) | D (showed less than 30% of inhibitory activity in 10 nM-addition zone and showed 30% or more of inhibitory activity in 100 nM-addition zone)
326 (FG[NMeF]G[Phe(4-(3-Py))]GDD[Cha]A[NMeF]LHCG-NH2; not fully specified) [compound 326] | – | – | ND (the inhibitory activity was less than 30% at the maximum concentration evaluated) | D (showed less than 30% of inhibitory activity in 10 nM-addition zone and showed 30% or more of inhibitory activity in 100 nM-addition zone)
327 (FG[NMeF]G[F42Py]GDD[Cha]A[NMeF]LHCG-NH2; not fully specified) [compound 327] | – | – | A (showed less than 30% of inhibitory activity in 2 nM-peptide-addition zone and showed 30% or more of inhibitory activity in 20 nM-addition zone) | D (showed less than 30% of inhibitory activity in 10 nM-addition zone and showed 30% or more of inhibitory activity in 100 nM-addition zone)
328 (FG[NMeF]G[3Pal(6-Ph)]GDD[Cha]A[NMeF]LHCG-NH2; not fully specified (N-terminus, bridges)) [compound 328] | – | – | ND (the inhibitory activity was less than 30% at the maximum concentration evaluated) | D (showed less than 30% of inhibitory activity in 10 nM-addition zone and showed 30% or more of inhibitory activity in 100 nM-addition zone)
329 (FG[NMeF]G[F44thp]GDD[Cha]A[NMeF]LHCG-NH2; not fully specified (N-terminus, bridges)) [compound 329] | – | – | ND (the inhibitory activity was less than 30% at the maximum concentration evaluated) | D (showed less than 30% of inhibitory activity in 10 nM-addition zone and showed 30% or more of inhibitory activity in 100 nM-addition zone)
330 (FG[NMeF][dA][Bip]GDD[Cha]A[NMeF]LHCG-NH2; not fully specified (N-terminus, bridges)) [compound 330] | – | – | ND (the inhibitory activity was less than 30% at the maximum concentration evaluated) | D (showed less than 30% of inhibitory activity in 10 nM-addition zone and showed 30% or more of inhibitory activity in 100 nM-addition zone)
331 (FG[NMeF][dS][Bip]GDD[Cha]A[NMeF]LHCG-NH2; not fully specified (N-terminus, bridges)) [compound 331] | – | – | ND (the inhibitory activity was less than 30% at the maximum concentration evaluated) | D (showed less than 30% of inhibitory activity in 10 nM-addition zone and showed 30% or more of inhibitory activity in 100 nM-addition zone)
332 (FG[NMeF]G[Bip]ADD[Cha]A[NMeF]LHCG-NH2; not fully specified (N-terminus, bridges)) [compound 332] | – | – | ND (the inhibitory activity was less than 30% at the maximum concentration evaluated) | D (showed less than 30% of inhibitory activity in 10 nM-addition zone and showed 30% or more of inhibitory activity in 100 nM-addition zone)
333 (FG[NMeF]G[Bip][dA]DD[Cha]A[NMeF]LHCG-NH2; not fully specified (N-terminus, bridges)) [compound 333] | – | – | ND (the inhibitory activity was less than 30% at the maximum concentration evaluated) | D (showed less than 30% of inhibitory activity in 10 nM-addition zone and showed 30% or more of inhibitory activity in 100 nM-addition zone)
334 (FG[NMeF]G[Bip]GND[Cha]A[NMeF]LHCG-NH2; not fully specified (N-terminus, bridges)) [compound 334] | – | – | ND (the inhibitory activity was less than 30% at the maximum concentration evaluated) | D (showed less than 30% of inhibitory activity in 10 nM-addition zone and showed 30% or more of inhibitory activity in 100 nM-addition zone)
335 (FG[NMeF]G[Bip]GDD[Ala(cPent)]A[NMeF]LHCG-NH2; not fully specified (N-terminus, bridges)) [compound 335] | – | – | ND (the inhibitory activity was less than 30% at the maximum concentration evaluated) | D (showed less than 30% of inhibitory activity in 10 nM-addition zone and showed 30% or more of inhibitory activity in 100 nM-addition zone)
336 (FG[NMeF]G[Bip]GDD[Cha]E[NMeF]LHCG-NH2; not fully specified (N-terminus, bridges)) [compound 336] | – | – | ND (the inhibitory activity was less than 30% at the maximum concentration evaluated) | D (showed less than 30% of inhibitory activity in 10 nM-addition zone and showed 30% or more of inhibitory activity in 100 nM-addition zone)
